Laboratory results reported in the supplement of paper PMC12855868.

B1: library; numbered along this chain (parent)
chain: MAAAGGARLLRAASAVLGGPAGRWLHHAGSRAGSSGLLRNRGPGGSAEASRSLSVSARARSSSEDKITVHFINRDGETLTTKGKVGDSLLDVVVENNLDIDGFGACEGTLACSTCHLIFEDHIYEKLDAITDEENDMLDLAYGLTDRSRLGCQICLTKSMDNMTVRVPETVADARQSIDVGKTS

Variants of: B1
Assay: scaled log2 fold change in cell abundance, elesclomol vs control (0 = silent mean, 1 = nonsense mean) (scaled log2 ratio); higher = higher viability under elesclomol (loss of FDX1 cuproptosis function)
Conditions: glucose 10 mM
Experimental: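 Deep mutational scan of full-length human FDX1: a pooled saturation-mutagenesis ORF library (every residue 2-184 mutated to all 19 amino acids plus stop, and silent codons where available) was expressed by lentivirus in FDX1-knockout ABC1 (14 days) or HEK293T (11 days) cells grown with elesclomol (ES) or DMSO control. Variant abundance came from ORF sequencing. The log2 fold change (ES vs control, mean of duplicates) was centred on the silent-variant mean (0) and scaled to the nonsense-variant mean (1). Higher values mean greater viability under ES, i.e. loss of FDX1 function in cuproptosis.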

[1] = with ABC1 FDX1 KO, elesclomol 5 nM, 14 days
[2] = with HEK293T FDX1 KO, elesclomol 40 nM, 11 days
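Also: variant abundance is its share of total variant reads in each endpoint sample, from next-generation sequencing of the integrated ORF PCR-amplified out of genomic DNA.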

| Variant | scaled log2 fold change [1] | scaled log2 fold change [2] |
| --- | --- | --- |
| G33S | 0.208 | -0.0845 |
| G33I | 0.161 | 0.713 |
| G33R | -0.26 | -0.362 |
| G33M | 0.0509 | -0.453 |
| G33N | 0.0785 | 0.48 |
| G33H | 0.23 | 0.469 |
| G33Q | -0.173 | -0.043 |
| G33V | 0.127 | 0.731 |
| G33T | 0.154 | 0.176 |
| G33E | 0.197 | -0.759 |
| G33L | -0.121 | -1.21 |
| G33K | 0.0454 | 0.247 |
| G33C | -0.0719 | 0.194 |
| G33P | -0.0501 | 0.139 |
| G33W | -0.0437 | 0.197 |
| G33F | 0.0743 | 0.637 |
| G33Y | 0.0588 | 0.657 |
| G33A | 0.0776 | 0.0796 |
| G36V | -0.491 | -0.262 |
| G36F | -0.16 | -0.239 |
| G36Y | 0.0493 | -0.0699 |
| G36M | 0.149 | -0.00494 |
| G36S | 0.168 | -0.0207 |
| G36Q | -0.138 | 0.311 |

| Variant | scaled log2 fold change [1] | scaled log2 fold change [2] |
| --- | --- | --- |
| G36D | -0.0689 | 0.737 |
| G36T | 0.266 | 0.704 |
| G36H | 0.443 | -1.19 |
| G36N | 0.0293 | 0.187 |
| G36K | -0.118 | -0.253 |
| G36W | -0.615 | 1.33 |
| G36E | 0.292 | 0.257 |
| G36I | 0.0053 | -0.456 |
| G36C | -0.121 | 0.501 |
| G36R | -0.252 | 0.0429 |
| G36L | 0.19 | 0.873 |
| L37R | -0.0271 | 0.0954 |
| L37Q | -0.0502 | -0.659 |
| L37C | -0.0306 | – |
| L37G | 0.613 | -0.248 |
| L37V | 0.412 | – |
| L37F | 0.0336 | 0.00175 |
| L37E | -0.0101 | -0.121 |
| L37P | 0.51 | 1.09 |
| L37M | 0.0458 | 0.0807 |
| L37W | 0.235 | -0.0987 |
| L37Y | 0.353 | 0.0859 |
| L37D | -0.0765 | -0.369 |
| L37S | 0.557 | -0.131 |

| Variant | scaled log2 fold change [1] | scaled log2 fold change [2] |
| --- | --- | --- |
| L37H | -0.125 | -0.331 |
| L37T | 0.382 | 0.567 |
| L37K | 0.0656 | -0.805 |
| L38D | 0.132 | -0.187 |
| L38T | 0.403 | 0.953 |
| L38P | -0.12 | 0.667 |
| L38A | -0.113 | – |
| L38N | 0.377 | 0.121 |
| L38Q | -0.878 | -0.206 |
| L38G | -0.74 | – |
| L38Y | -0.0523 | -0.184 |
| L38I | -0.615 | 0.0108 |
| L38E | 0.019 | 0.931 |
| L38M | 0.492 | 1.02 |
| L38V | -0.109 | – |
| L38C | -0.631 | 0.0841 |
| L38W | -0.0179 | – |
| L38K | -0.0234 | 0.601 |
| L38S | -0.172 | -0.0978 |
| L38F | 0.294 | 0.135 |
| L38H | 0.153 | 0.35 |
| L38R | 0.333 | 1.23 |
| S35T | -0.263 | 0.526 |
| S35F | -0.398 | 0.53 |

| Variant | scaled log2 fold change [1] | scaled log2 fold change [2] |
| --- | --- | --- |
| S35Y | -0.531 | -0.958 |
| S35W | -0.0127 | -0.259 |
| S35P | -0.144 | – |
| S35H | -0.513 | 1.67 |
| S35V | 0.123 | -0.55 |
| S35M | 0.309 | 0.0177 |
| S35D | 0.267 | 1.13 |
| S35L | -0.141 | -0.673 |
| S35G | -0.212 | -1.33 |
| S35A | -0.0215 | 0.327 |
| S35R | -0.768 | -0.669 |
| S35I | 0.293 | 0.132 |
| S35E | -0.0617 | -0.644 |
| S35Q | 0.169 | 0.0163 |
| S35N | 0.181 | -0.653 |
| S35K | 0.175 | 0.17 |
| S35C | 0.0457 | 0.128 |
| A32Y | 0.0969 | 0.822 |
| A32S | 0.0206 | -0.496 |
| A32T | -0.266 | – |
| A32R | 0.589 | 1.44 |
| A32H | -0.58 | -0.0637 |
| A32P | 0.626 | – |
| A32N | -0.064 | -0.0431 |

| Variant | scaled log2 fold change [1] | scaled log2 fold change [2] |
| --- | --- | --- |
| A32W | -0.684 | – |
| A32V | -0.114 | – |
| A32I | 0.101 | 0.722 |
| A32Q | 0.0849 | -0.338 |
| S34D | 0.0928 | -0.389 |
| S34V | 0.0515 | -1.09 |
| S34R | -0.433 | 0.662 |
| S34H | 0.251 | -0.957 |
| S34I | -0.128 | -0.488 |
| S34T | 0.125 | -0.0688 |
| S34F | 0.0028 | -0.301 |
| S34W | 0.0117 | 0.853 |
| S34P | -0.325 | -0.116 |
| S34E | -0.124 | -0.639 |
| S34Y | 0.029 | -0.188 |
| S34L | 0.0704 | -0.513 |
| S34M | -0.108 | 0.216 |
| S34A | -0.221 | -0.449 |
| S34C | 0.0357 | 0.188 |
| S34K | 0.146 | -0.467 |
| S34Q | -0.0397 | -0.168 |
| S34G | 0.285 | -0.277 |
| S34N | 0.0794 | 0.424 |
